This note sets out measurements from PMC12051234, “NrdR in Streptococcus and Listeria spp.: DNA Helix Phase Dependence of the Bacterial Ribonucleotide Reductase Repressor”.

Experiment in all cases: MST; dATP + ATP; MST, temperature not stated. Lmo: 25 mM Bis-Tris propane pH 6.5, 100 mM KCl, 5 mM MgCl2, 5% glycerol, 1 mM DTT, 0.05% Tween 20, one nucleotide 1 mM or two at 0.5 mM each; Spn: 25 mM HEPES pH 7.2, 250 mM NaCl, 2.5 mM MgCl2, 15% glycerol, 2 mM DTT, 0.1 mg/mL BSA, 0.05% Tween 20, 0.5 mM ATP and/or dATP; Eco: 25 mM Tris pH 8.5, 100 mM NaCl, 7 mM MgCl2, 1 mM DTT, 0.025% Tween 20, 1 mM ATP + 1 mM dATP; …

The target of one data set is T1, ScoNrdR (Streptomyces coelicolor, UniProt O69980 1-182).
T1 sequence: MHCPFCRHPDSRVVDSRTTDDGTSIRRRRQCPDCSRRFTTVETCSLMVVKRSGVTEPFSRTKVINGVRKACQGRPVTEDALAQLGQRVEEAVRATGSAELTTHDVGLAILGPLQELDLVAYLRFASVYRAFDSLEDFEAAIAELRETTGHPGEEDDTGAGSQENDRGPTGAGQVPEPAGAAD
The settings on record: protein: recombinant; chain copies: 4; label: 5'-Cy5 sense; blunt.

The next data set concerns the target T2, SpnNrdR (Streptococcus pneumoniae TIGR4, UniProt P67318 1-157).
T2 sequence: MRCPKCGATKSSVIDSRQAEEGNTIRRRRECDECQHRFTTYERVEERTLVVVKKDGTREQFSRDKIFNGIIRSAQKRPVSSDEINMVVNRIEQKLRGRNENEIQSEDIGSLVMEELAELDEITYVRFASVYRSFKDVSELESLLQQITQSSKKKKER
Particulars: protein: recombinant; tags: C-terminal His6; chain copies: 4; label: 5'-Cy5 sense; blunt.

For another data set, the target named is T3, EcoNrdR (Escherichia coli, UniProt P0A8D0 1-149).
T3 sequence: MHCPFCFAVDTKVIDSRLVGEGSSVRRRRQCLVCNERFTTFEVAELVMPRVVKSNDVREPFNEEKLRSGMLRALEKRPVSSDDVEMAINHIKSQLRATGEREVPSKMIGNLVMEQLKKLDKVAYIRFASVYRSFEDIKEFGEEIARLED
Particulars: protein: recombinant; chain copies: 4; label: 5'-Cy5 sense; blunt.

A further data set deals with T4, LmoNrdR (Listeria monocytogenes serotype 1/2a …, UniProt Q8Y6W9 1-154).
T4 sequence: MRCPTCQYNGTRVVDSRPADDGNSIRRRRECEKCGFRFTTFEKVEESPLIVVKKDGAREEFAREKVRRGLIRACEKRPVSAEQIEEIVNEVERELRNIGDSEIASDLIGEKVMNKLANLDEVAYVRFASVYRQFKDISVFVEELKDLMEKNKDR
The settings on record: protein: recombinant; tags: C-terminal His6; chain copies: 4; label: 5'-Cy5 sense; blunt.

B1: Synt 27 bp spacer (dsDNA)
DNA 1: GCCAAACACAACATCTAGTGGTTGGATAGCGTGAAGTTACCACCTAGCACACAACATCTAGTGGACCTC
DNA 2: GAGGTCCACTAGATGTTGTGTGCTAGGTGGTAACTTCACGCTATCCAACCACTAGATGTTGTGTTTGGC
With B1, the dissociation constant (Kd) in the data set with ScoNrdR is 3500 ± 626 nM; with SpnNrdR it was 3190 ± 238 nM; in the data set with EcoNrdR, 27 ± 8 nM; with LmoNrdR, 18 ± 6 nM.

A word on the Kd: it is the free concentration of one partner at which half of the binding sites on the other are occupied at equilibrium, for simple one-to-one binding.
